The values below come from patent US20250109204A1 (LAVA THERAPEUTICS N V, published 2025).

The target in assay [1] is Epidermal growth factor receptor (EGFR) on tumor cell lines A-431, HCT-116 and HT-29 (human) (UniProt P00533). Description: cell-based or functional assay.
For assay [2], the target named is Human Vγ9Vδ2 T cell receptor on primary Vγ9Vδ2 T cells (human) (UniProt Q99603). The assay can be described thus: cell-based or functional assay.
Assay [3] has the same target. Description: flow cytometry on expanded primary Vγ9Vδ2 T cells of donor D339 (panel 'Binding to D339 P2'), anti-IgG1 secondary, MFI (geometric mean); EC50 table beside the curve gives no unit, x axis is in nM.
Assay [4] addresses T1, Epidermal growth factor receptor (EGFR) on tumor cell lines A-431, HCT-116 and HT-29 (human, UniProt P00533 25-1210).
T1 construct: whole, on cells; also called EGFR positive tumor cells
The assay can be described thus: cell-based ELISA on A-431 cells, anti-IgG1-HRP, signal at 450 nm. The protocol: (§1) To this end, tumor cells were first seeded at different concentrations on day-1 to reach a concentration of approximately 50000 cells/well on day 0. […] Bound antibodies were then labelled in a secondary incubation step with anti-IgG1-HRP for one hour at 37° C. The secondary antibody binding was then resolved by the addition of 3,3′,5,5′-Tetramethylbenzidine and the colorimetric change induced by the HRP, followed by the addition of H2SO4 to stop the reaction. The optical density (OD) was then measured in a UV spectrometer at a wavelength of 450 nm.

For assay [5], the target named is T1, Epidermal growth factor receptor (EGFR) …. The assay can be described thus: cell-based ELISA on HT29 cells, anti-IgG1-HRP, signal at 450 nm; EC50 table gives no unit, x axis is in nM. On the procedure: as §1
For assay [6], the target named is Human Vγ9Vδ2 T cell receptor on primary Vγ9Vδ2 T cells (human) (UniProt Q99603). The assay can be described thus: flow cytometry on expanded primary Vγ9Vδ2 T cells of donor D336 (panel 'Binding to D336 P3'), anti-IgG1 secondary, MFI (geometric mean); EC50 table beside the curve gives no unit, x axis is in nM.
Assay [7] has the same target. Description: flow cytometry on expanded primary human Vγ9Vδ2 T cells (two donors), labelled anti-IgG1 secondary antibody.
For assay [8], the target named is T1, Epidermal growth factor receptor (EGFR) …. Description: cell-based ELISA on EGFR-expressing A-431, HCT-116 and HT-29 cells, anti-IgG1-HRP, OD 450 nm; one EC50 given for all three cell lines A-431, HCT-116 and HT-29; 37° C. On the procedure:
as §1

Assay [9] has the same target. Description: cell-based ELISA on A-431 cells, anti-IgG1-HRP, signal at 450 nm; EC50 table gives no unit, x axis is in nM; the table is identical to that of Fig. 10C and does not fit the drawn curve. On the procedure:
as §1

The target is the same in assay [10]. Description: cell-based ELISA on HCT-116 cells, anti-IgG1-HRP, signal at 450 nm; EC50 table gives no unit, x axis is in nM. On the procedure: as §1
Assay [11] deals with Recombinant human Vγ9Vδ2-Fc fusion protein (human) (UniProt Q99603). Description: BLI (Octet RED96), Vγ9Vδ2-Fc captured on anti-human Fc biosensors, VHH as analyte, 1:1 global fit, mean of at least three measurements +/- SD.
Assay [12] has as its target T1, Epidermal growth factor receptor (EGFR) …. Description: cell-based or functional assay.
The target of assay [13] is Human Vγ9Vδ2 T cell receptor on primary Vγ9Vδ2 T cells (human), Q99603. The assay can be described thus: cell-based or functional assay.

On to “bispecific VHH 7D12-5C8 (non-humanized) (bispecific antibody)”, for which the EC50 cytotoxicity (pM) in assay [1] worked out at 9 pM. The molecule also came in with an EC50 degranulation (pM) in assay [2] of 10 pM.

B1: 7D12var8-5C8var1 (Y105F)-Fc (bispecific antibody, V domains shown)
V domain 1: EVQLVESGGGSVQPGGSLRLSCAASGRTSRSYGMGWFRQAPGKEREFVSGISWRGDSTGYADSVKGRFTISRDNAKNTVDLQMNSLRAEDTAVYYCAAAAGSAWYGTLYEYDYWGQGTLVTVSS
V domain 2: EVQLLESGGGSVQPGGSLRLSCAASGRPFSNYAMSWFRQAPGKEREFVSAISWSGGSTSYADSVKGRFTISRDNSKNTLYLQMNSLRAEDTAVYYCAAQFSGADFGFGRLGIRGYEYDYWGQGTQVTVSS
notes: Heterodimer of two VHH-Fc chains: 7D12var8-Fc (hole) and 5C8var1(Y105F)-Fc (knob); Human IgG1 Fc with L234F and L235E; In both entries the last residue X3 is K or absent; copies: 1 + 1
B1: the half-maximal effective concentration (EC50) in [3] is 3.99 nM; in assay [5], 6.45 nM; in assay [6] it was 3.11 nM; in [7] it was 3 nM; in [8], around 7 nM; in [9], 7.29 nM. It took 7.29 nM to reach a half-maximal effect in assay [10] (EC50). Moreover, in assay [4], the half-maximal effective concentration (EC50 (read off the curve)) was around 1 nM. For the same molecule, in assay [2], the EC50 for Vγ9Vδ2 T cell degranulation (CD107a) is 0.04 to 0.09 nM.

B2: VHH 5C8var1-Y105F (VHH)
VHH: EVQLLESGGGSVQPGGSLRLSCAASGRPFSNYAMSWFRQAPGKEREFVSAISWSGGSTSYADSVKGRFTISRDNSKNTLYLQMNSLRAEDTAVYYCAAQFSGADFGFGRLGIRGYEYDYWGQGTQVTVSS
Consider B2, for which the Kd in [11] was 0.78 nM.

B3: VHH 5C8var1-Y105S (VHH)
VHH: EVQLLESGGGSVQPGGSLRLSCAASGRPFSNYAMSWFRQAPGKEREFVSAISWSGGSTSYADSVKGRFTISRDNSKNTLYLQMNSLRAEDTAVYYCAAQFSGADSGFGRLGIRGYEYDYWGQGTQVTVSS
B3: the Kd in assay [11] stood at 1.59 nM.

B4: VHH 5C8var1 (VHH)
VHH: EVQLLESGGGSVQPGGSLRLSCAASGRPFSNYAMSWFRQAPGKEREFVSAISWSGGSTSYADSVKGRFTISRDNSKNTLYLQMNSLRAEDTAVYYCAAQFSGADYGFGRLGIRGYEYDYWGQGTQVTVSS
modifications: Y105 partly sulfated (shown for 5C8 and for 1D12var5-5C8var1; 5C8var1 gave two HP-SEC peaks)
On to B4, for which the Kd in assay [11] amounted to 0.81 nM.

B5: bispecific VHH 7D12var8-5C8var1-Y105F (bispecific antibody)
chain: EVQLVESGGGSVQPGGSLRLSCAASGRTSRSYGMGWFRQAPGKEREFVSGISWRGDSTGYADSVKGRFTISRDNAKNTVDLQMNSLRAEDTAVYYCAAAAGSAWYGTLYEYDYWGQGTLVTVSSGGGGSEVQLLESGGGSVQPGGSLRLSCAASGRPFSNYAMSWFRQAPGKEREFVSAISWSGGSTSYADSVKGRFTISRDNSKNTLYLQMNSLRAEDTAVYYCAAQFSGADFGFGRLGIRGYEYDYWGQGTQVTVSS
In the case of B5, the “EC50 cytotoxicity (pM)” value in [12] was 2.5 pM. The molecule also displayed an EC50 degranulation (pM) in assay [13] of 11 pM.
